How the values were obtained:
Assay in all cases: cell-based or functional assay
[1] = target: HIV-1 Env of pseudovirus CAP210.2.00.E8 (HIV-1)
[2] = target: HIV-1 Env of pseudovirus 7030102001E5(Rev-) (HIV-1)
[3] = target: HIV-1 Env of pseudovirus 246F C1G (HIV-1)
[4] = target: HIV-1 Env of pseudovirus C2101.c01 (HIV-1)
[5] = target: HIV-1 Env of pseudovirus BF1266.431a (HIV-1)
[6] = target: HIV-1 Env of pseudovirus Ce1172_H1 (HIV-1)
[7] = target: HIV-1 Env of pseudovirus HIV-16845-2.22 (HIV-1)
[8] = target: HIV-1 Env of pseudovirus Ce703010054_2A2 (HIV-1)
[9] = target: HIV-1 Env of pseudovirus P1981_C5_3 (HIV-1)
[10] = target: HIV-1 Env of pseudovirus 620345.c01 (HIV-1)
[11] = target: HIV-1 Env of pseudovirus P0402_c2_11 (HIV-1)
[12] = target: HIV-1 Env of pseudovirus ZM135M.PL10a (HIV-1)
[13] = target: HIV-1 Env of pseudovirus R1166.c01 (HIV-1)
[14] = target: HIV-1 Env of pseudovirus T255-34 (HIV-1)
[15] = target: HIV-1 Env of pseudovirus 211-9 (HIV-1)
[16] = target: HIV-1 Env of pseudovirus ZM249M.PL1 (HIV-1)
[17] = target: HIV-1 Env of pseudovirus CAAN5342.A2 (HIV-1)
[18] = target: HIV-1 Env of pseudovirus Ce2010_F5 (HIV-1)
[19] = target: HIV-1 Env of pseudovirus THRO4156.18 (HIV-1)
[20] = target: HIV-1 Env of pseudovirus WITO4160.33 (HIV-1)
[21] = target: HIV-1 Env of pseudovirus MS208.A1 (HIV-1)
[22] = target: HIV-1 Env of pseudovirus Q259.d2.17 (HIV-1)
[23] = target: HIV-1 Env of pseudovirus 6811.v7.c18 (HIV-1)
[24] = target: HIV-1 Env of pseudovirus REJO4541.67 (HIV-1)
[25] = target: HIV-1 Env of pseudovirus R3265.c06 (HIV-1)
[26] = target: HIV-1 Env of pseudovirus AC10.0.29 (HIV-1)
[27] = target: HIV-1 Env of pseudovirus RHPA4259.7 (HIV-1)
[28] = target: HIV-1 Env of pseudovirus 1006_11_C3_1601 (HIV-1)
[29] = target: HIV-1 Env of pseudovirus 6244_13_B5_4576 (HIV-1)
[30] = target: HIV-1 Env of pseudovirus WEAU_d15_410_787 (HIV-1)
[31] = target: HIV-1 Env of pseudovirus 6545.v4.c1 (HIV-1)

Work on VRC01 (antibody) yielded an IC50, titer in TZM.bl cells [1] greater than 50 µg/mL, an IC80, titer in TZM.bl cells [1] greater than 50 µg/mL and an IC50, titer in TZM.bl cells [2] of 0.54 µg/mL. It also gave an IC80, titer in TZM.bl cells [2] of 2.08 µg/mL, an IC50, titer in TZM.bl cells [3] greater than 10 µg/mL and an IC80, titer in TZM.bl cells [3] greater than 10 µg/mL. For the same substance, the IC50, titer in TZM.bl cells [4] was 0.36 µg/mL, the IC80, titer in TZM.bl cells [4] was 1.17 µg/mL and the IC50, titer in TZM.bl cells [5] was 0.07 µg/mL. The IC80, titer in TZM.bl cells [5] was 0.23 µg/mL, the IC50, titer in TZM.bl cells [6] was greater than 10 µg/mL and the IC80, titer in TZM.bl cells [6] was greater than 10 µg/mL. It also gave an IC50, titer in TZM.bl cells [7] of 2.8 µg/mL, an IC80, titer in TZM.bl cells [7] of 12.7 µg/mL and an IC50, titer in TZM.bl cells [8] of 0.53 µg/mL. For the same substance, the IC80, titer in TZM.bl cells [8] was 1.84 µg/mL, the IC50, titer in TZM.bl cells [9] was 0.46 µg/mL and the IC80, titer in TZM.bl cells [9] was 1.26 µg/mL. It also gave an IC50, titer in TZM.bl cells [10] greater than 50 µg/mL, an IC80, titer in TZM.bl cells [10] greater than 50 µg/mL and an IC50, titer in TZM.bl cells [11] of 0.21 µg/mL. The IC80, titer in TZM.bl cells [11] was 0.59 µg/mL, the IC50, titer in TZM.bl cells [12] was 0.35 µg/mL and the IC80, titer in TZM.bl cells [12] was 2.7 µg/mL. For the same substance, the IC50, titer in TZM.bl cells [13] was 1.7 µg/mL, the IC80, titer in TZM.bl cells [13] was 4.58 µg/mL and the IC50, titer in TZM.bl cells [14] was 0.7 µg/mL. The IC80, titer in TZM.bl cells [14] was 2.7 µg/mL, the IC50, titer in TZM.bl cells [15] was 14.3 µg/mL and the IC80, titer in TZM.bl cells [15] was greater than 50 µg/mL. It also gave an IC50, titer in TZM.bl cells [16] of 0.05 µg/mL, an IC80, titer in TZM.bl cells [16] of 0.23 µg/mL and an IC50, titer in TZM.bl cells [17] of 0.82 µg/mL. For the same substance, the IC80, titer in TZM.bl cells [17] was 2.8 µg/mL, the IC50, titer in TZM.bl cells [18] was 0.32 µg/mL and the IC80, titer in TZM.bl cells [18] was 1.07 µg/mL. For the same substance, the IC80, titer in TZM.bl cells [19] was 23 µg/mL, the IC50, titer in TZM.bl cells [20] was 0.15 µg/mL and the IC80, titer in TZM.bl cells [20] was 0.41 µg/mL. It also gave an IC50, titer in TZM.bl cells [21] of 0.1 µg/mL, an IC80, titer in TZM.bl cells [21] of 0.46 µg/mL and an IC50, titer in TZM.bl cells [22] of 0.17 µg/mL. It also gave an IC80, titer in TZM.bl cells [22] of 0.54 µg/mL, an IC50, titer in TZM.bl cells [23] of 0.09 µg/mL and an IC80, titer in TZM.bl cells [23] of 0.26 µg/mL. It also gave an IC50, titer in TZM.bl cells [24] of 0.06 µg/mL, an IC80, titer in TZM.bl cells [24] of 0.25 µg/mL and an IC50, titer in TZM.bl cells [25] of 0.45 µg/mL. For the same substance, the IC80, titer in TZM.bl cells [25] was 1.88 µg/mL, the IC50, titer in TZM.bl cells [26] was 2.2 µg/mL and the IC80, titer in TZM.bl cells [26] was 6.5 µg/mL. The IC50, titer in TZM.bl cells [27] was 0.06 µg/mL, the IC80, titer in TZM.bl cells [27] was 0.185 µg/mL and the IC50, titer in TZM.bl cells [28] was 0.15 µg/mL. For the same substance, the IC80, titer in TZM.bl cells [28] was 0.39 µg/mL, the IC50, titer in TZM.bl cells [29] was 0.21 µg/mL and the IC80, titer in TZM.bl cells [29] was 0.53 µg/mL. The IC50, titer in TZM.bl cells [30] was 0.12 µg/mL, the IC80, titer in TZM.bl cells [30] was 0.26 µg/mL and the IC50, titer in TZM.bl cells [31] was greater than 50 µg/mL. It also gave an IC80, titer in TZM.bl cells [31] greater than 50 µg/mL.

Reference: patent US20230002480A1
